According to paper PMC8373667:

Target: JJS-A6/A11 VHH heterodimer, thioredoxin-fused (alpaca (Vicugna pacos))
Test: far-Western, overlay or dot blot

B1: recombinant Cp-P34 (natural protein)
chain: MSGVSRRAVITDPNGVYEGDVNEKGLKHGNGVYKVNTGDVYEGEYSNGLKNGYGVYTWANGDKFEGYYKDDIKWGHGIYRWSNGEVFEGEYVRGVKCGHGIYTWPNGDRFEGEYKDGVKEGFGVYKLATGRIYEGQYSRDMRNGQGTSRYTDGSVYTGEWFDGKEHGHGLLKFSDSSSYEGDFQNGAPNGQGKYTYSNGNYYVGGFKNGLTDGPGSLTFAEDNRVLKANWKDGQVDGDAAIIYPDGGKYTGEVVNGIRQGKGIMTESNGDIFDGEFFRDFRHGEGILTVNGKQKRVKYNMGKKVGLCSC
percent of VHH binding to the native target blocked by the recombinant protein: 95.2%
